Test results from US20230159659A1.

Tests used:
[1] = molecular target: Papain from papaya latex (Sigma) (papaya) (UniProt P00784)
[2] = molecular target: Papain from papaya latex (Sigma) (papaya) (UniProt P00784); remark: listed apart in the source

| Substance | protease activity (OD), Protease Assay Kit [1] [OD] | protease activity (% of papain alone), Protease Assay Kit [2] [%] |
| --- | --- | --- |
| Recombinant Human Cystatin SN Protein (recombinant CST1, R&D Systems) | 0.0005 | – |
| Recombinant human Cystatin SA protein (recombinant CST2, Abcam) | – | 64.3 |
